Results published in patent US12679878B2, “CRF2 receptor agonists and their use in therapy” (SANOFI, priority 2020, dated 2026).
Starred links: 1 amine or outer side, 2 acyl side, 3 side chain; linkers in the order of their positions; H or OH if unused. Non-standard residues stand in square brackets, D forms with d. Groups on a side chain read outwards from the residue. No end group written: not given here. *: point of attachment. C20 diacid = O=C(O)CCCCCCCCCCCCCCCCCCC(=O)*; C16 diacid = O=C(O)CCCCCCCCCCCCCCC(=O)*; γGlu = O=C(O)[C@H](CCC(=O)[*:2])N[*:1]; Palmitoyl = CCCCCCCCCCCCCCCC(=O)*; AEEA = NCCOCCOCC(=O)O; Aib = CC(C)(N)C(=O)O

T1: CRF1R receptor (anti-target) (UniProt P34998 24-415, limits assumed)
T1 sequence (looked up): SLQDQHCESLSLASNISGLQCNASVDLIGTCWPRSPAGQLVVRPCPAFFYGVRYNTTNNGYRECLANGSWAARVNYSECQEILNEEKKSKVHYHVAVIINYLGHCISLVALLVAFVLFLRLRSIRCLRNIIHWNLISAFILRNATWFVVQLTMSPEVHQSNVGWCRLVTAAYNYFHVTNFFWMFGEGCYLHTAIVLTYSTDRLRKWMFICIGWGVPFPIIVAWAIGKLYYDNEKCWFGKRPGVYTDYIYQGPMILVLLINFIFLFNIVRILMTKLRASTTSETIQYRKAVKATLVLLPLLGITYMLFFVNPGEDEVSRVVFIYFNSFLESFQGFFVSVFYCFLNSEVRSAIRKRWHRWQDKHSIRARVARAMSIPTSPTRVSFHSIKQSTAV

B1: peptide of SEQ ID NO: 195 (peptide)
peptide: IVLSLD[dV]PIGLK([γGlu-C16 diacid])QILLKQERQKK[Aib]RQQAETNKRILERV-NH2
modifications: N-terminus assumed
SMILES: CC[C@H](C)[C@H](N)C(=O)N[C@H](C(=O)N[C@@H](CC(C)C)C(=O)N[C@@H](CO)C(=O)N[C@@H](CC(C)C)C(=O)N[C@@H](CC(=O)O)C(=O)N[C@@H](C(=O)N1CCC[C@H]1C(=O)N[C@H](C(=O)NCC(=O)N[C@@H](CC(C)C)C(=O)N[C@@H](CCCCNC(=O)CC[C@H](NC(=O)CCCCCCCCCCCCCCC(=O)O)C(=O)O)C(=O)N[C@@H](CCC(N)=O)C(=O)N[C@H](C(=O)N[C@@H](CC(C)C)C(=O)N[C@@H](CC(C)C)C(=O)N[C@@H](CCCCN)C(=O)N[C@@H](CCC(N)=O)C(=O)N[C@@H](CCC(=O)O)C(=O)N[C@@H](CCCNC(=N)N)C(=O)N[C@@H](CCC(N)=O)C(=O)N[C@@H](CCCCN)C(=O)N[C@@H](CCCCN)C(=O)NC(C)(C)C(=O)N[C@@H](CCCNC(=N)N)C(=O)N[C@@H](CCC(N)=O)C(=O)N[C@@H](CCC(N)=O)C(=O)N[C@@H](C)C(=O)N[C@@H](CCC(=O)O)C(=O)N[C@H](C(=O)N[C@@H](CC(N)=O)C(=O)N[C@@H](CCCCN)C(=O)N[C@@H](CCCNC(=N)N)C(=O)N[C@H](C(=O)N[C@@H](CC(C)C)C(=O)N[C@@H](CCC(=O)O)C(=O)N[C@@H](CCCNC(=N)N)C(=O)N[C@H](C(N)=O)C(C)C)[C@@H](C)CC)[C@@H](C)O)[C@@H](C)CC)[C@@H](C)CC)C(C)C)C(C)C
B2: peptide of SEQ ID NO: 223 (peptide)
peptide: IVLSLD[dV]PTKLK([γGlu-Palmitoyl])QKLLKQERQRKEREQAEKNKRILERV-NH2
modifications: N-terminus assumed
SMILES: CCCCCCCCCCCCCCCC(=O)N[C@@H](CCC(=O)NCCCC[C@H](NC(=O)[C@H](CC(C)C)NC(=O)[C@H](CCCCN)NC(=O)[C@@H](NC(=O)[C@@H]1CCCN1C(=O)[C@H](NC(=O)[C@H](CC(=O)O)NC(=O)[C@H](CC(C)C)NC(=O)[C@H](CO)NC(=O)[C@H](CC(C)C)NC(=O)[C@@H](NC(=O)[C@@H](N)[C@@H](C)CC)C(C)C)C(C)C)[C@@H](C)O)C(=O)N[C@@H](CCC(N)=O)C(=O)N[C@@H](CCCCN)C(=O)N[C@@H](CC(C)C)C(=O)N[C@@H](CC(C)C)C(=O)N[C@@H](CCCCN)C(=O)N[C@@H](CCC(N)=O)C(=O)N[C@@H](CCC(=O)O)C(=O)N[C@@H](CCCNC(=N)N)C(=O)N[C@@H](CCC(N)=O)C(=O)N[C@@H](CCCNC(=N)N)C(=O)N[C@@H](CCCCN)C(=O)N[C@@H](CCC(=O)O)C(=O)N[C@@H](CCCNC(=N)N)C(=O)N[C@@H](CCC(=O)O)C(=O)N[C@@H](CCC(N)=O)C(=O)N[C@@H](C)C(=O)N[C@@H](CCC(=O)O)C(=O)N[C@@H](CCCCN)C(=O)N[C@@H](CC(N)=O)C(=O)N[C@@H](CCCCN)C(=O)N[C@@H](CCCNC(=N)N)C(=O)N[C@H](C(=O)N[C@@H](CC(C)C)C(=O)N[C@@H](CCC(=O)O)C(=O)N[C@@H](CCCNC(=N)N)C(=O)N[C@H](C(N)=O)C(C)C)[C@@H](C)CC)C(=O)O
B3: peptide of SEQ ID NO: 196 (peptide)
peptide: IVLSLD[dV]PIGLK([γGlu-C16 diacid])QILLKQERQKK[Aib]REQAEKNKRILERV-NH2
modifications: N-terminus assumed
SMILES: CC[C@H](C)[C@H](N)C(=O)N[C@H](C(=O)N[C@@H](CC(C)C)C(=O)N[C@@H](CO)C(=O)N[C@@H](CC(C)C)C(=O)N[C@@H](CC(=O)O)C(=O)N[C@@H](C(=O)N1CCC[C@H]1C(=O)N[C@H](C(=O)NCC(=O)N[C@@H](CC(C)C)C(=O)N[C@@H](CCCCNC(=O)CC[C@H](NC(=O)CCCCCCCCCCCCCCC(=O)O)C(=O)O)C(=O)N[C@@H](CCC(N)=O)C(=O)N[C@H](C(=O)N[C@@H](CC(C)C)C(=O)N[C@@H](CC(C)C)C(=O)N[C@@H](CCCCN)C(=O)N[C@@H](CCC(N)=O)C(=O)N[C@@H](CCC(=O)O)C(=O)N[C@@H](CCCNC(=N)N)C(=O)N[C@@H](CCC(N)=O)C(=O)N[C@@H](CCCCN)C(=O)N[C@@H](CCCCN)C(=O)NC(C)(C)C(=O)N[C@@H](CCCNC(=N)N)C(=O)N[C@@H](CCC(=O)O)C(=O)N[C@@H](CCC(N)=O)C(=O)N[C@@H](C)C(=O)N[C@@H](CCC(=O)O)C(=O)N[C@@H](CCCCN)C(=O)N[C@@H](CC(N)=O)C(=O)N[C@@H](CCCCN)C(=O)N[C@@H](CCCNC(=N)N)C(=O)N[C@H](C(=O)N[C@@H](CC(C)C)C(=O)N[C@@H](CCC(=O)O)C(=O)N[C@@H](CCCNC(=N)N)C(=O)N[C@H](C(N)=O)C(C)C)[C@@H](C)CC)[C@@H](C)CC)[C@@H](C)CC)C(C)C)C(C)C
B4: peptide of SEQ ID NO: 190 (peptide)
peptide: IVLSLD[dV]PIKLK([γGlu-C16 diacid])QILLKQERQKKQREQAEKNKQILEQV-NH2
modifications: N-terminus assumed
SMILES: CC[C@H](C)[C@H](N)C(=O)N[C@H](C(=O)N[C@@H](CC(C)C)C(=O)N[C@@H](CO)C(=O)N[C@@H](CC(C)C)C(=O)N[C@@H](CC(=O)O)C(=O)N[C@@H](C(=O)N1CCC[C@H]1C(=O)N[C@H](C(=O)N[C@@H](CCCCN)C(=O)N[C@@H](CC(C)C)C(=O)N[C@@H](CCCCNC(=O)CC[C@H](NC(=O)CCCCCCCCCCCCCCC(=O)O)C(=O)O)C(=O)N[C@@H](CCC(N)=O)C(=O)N[C@H](C(=O)N[C@@H](CC(C)C)C(=O)N[C@@H](CC(C)C)C(=O)N[C@@H](CCCCN)C(=O)N[C@@H](CCC(N)=O)C(=O)N[C@@H](CCC(=O)O)C(=O)N[C@@H](CCCNC(=N)N)C(=O)N[C@@H](CCC(N)=O)C(=O)N[C@@H](CCCCN)C(=O)N[C@@H](CCCCN)C(=O)N[C@@H](CCC(N)=O)C(=O)N[C@@H](CCCNC(=N)N)C(=O)N[C@@H](CCC(=O)O)C(=O)N[C@@H](CCC(N)=O)C(=O)N[C@@H](C)C(=O)N[C@@H](CCC(=O)O)C(=O)N[C@@H](CCCCN)C(=O)N[C@@H](CC(N)=O)C(=O)N[C@@H](CCCCN)C(=O)N[C@@H](CCC(N)=O)C(=O)N[C@H](C(=O)N[C@@H](CC(C)C)C(=O)N[C@@H](CCC(=O)O)C(=O)N[C@@H](CCC(N)=O)C(=O)N[C@H](C(N)=O)C(C)C)[C@@H](C)CC)[C@@H](C)CC)[C@@H](C)CC)C(C)C)C(C)C
B5: peptide of SEQ ID NO: 197 (peptide)
peptide: IVLSLD[dV]PIKLK([γGlu-C16 diacid])QILLKQARQK[Aib]QRAQAEKNKRILERV-NH2
modifications: N-terminus assumed
SMILES: CC[C@H](C)[C@H](N)C(=O)N[C@H](C(=O)N[C@@H](CC(C)C)C(=O)N[C@@H](CO)C(=O)N[C@@H](CC(C)C)C(=O)N[C@@H](CC(=O)O)C(=O)N[C@@H](C(=O)N1CCC[C@H]1C(=O)N[C@H](C(=O)N[C@@H](CCCCN)C(=O)N[C@@H](CC(C)C)C(=O)N[C@@H](CCCCNC(=O)CC[C@H](NC(=O)CCCCCCCCCCCCCCC(=O)O)C(=O)O)C(=O)N[C@@H](CCC(N)=O)C(=O)N[C@H](C(=O)N[C@@H](CC(C)C)C(=O)N[C@@H](CC(C)C)C(=O)N[C@@H](CCCCN)C(=O)N[C@@H](CCC(N)=O)C(=O)N[C@@H](C)C(=O)N[C@@H](CCCNC(=N)N)C(=O)N[C@@H](CCC(N)=O)C(=O)N[C@@H](CCCCN)C(=O)NC(C)(C)C(=O)N[C@@H](CCC(N)=O)C(=O)N[C@@H](CCCNC(=N)N)C(=O)N[C@@H](C)C(=O)N[C@@H](CCC(N)=O)C(=O)N[C@@H](C)C(=O)N[C@@H](CCC(=O)O)C(=O)N[C@@H](CCCCN)C(=O)N[C@@H](CC(N)=O)C(=O)N[C@@H](CCCCN)C(=O)N[C@@H](CCCNC(=N)N)C(=O)N[C@H](C(=O)N[C@@H](CC(C)C)C(=O)N[C@@H](CCC(=O)O)C(=O)N[C@@H](CCCNC(=N)N)C(=O)N[C@H](C(N)=O)C(C)C)[C@@H](C)CC)[C@@H](C)CC)[C@@H](C)CC)C(C)C)C(C)C
B6: peptide of SEQ ID NO: 193 (peptide)
peptide: IVLSLD[dV]PIGLK([γGlu-C16 diacid])QILLKQERQKK[Aib]REQAETNKRILERV-NH2
modifications: N-terminus assumed
SMILES: CC[C@H](C)[C@H](N)C(=O)N[C@H](C(=O)N[C@@H](CC(C)C)C(=O)N[C@@H](CO)C(=O)N[C@@H](CC(C)C)C(=O)N[C@@H](CC(=O)O)C(=O)N[C@@H](C(=O)N1CCC[C@H]1C(=O)N[C@H](C(=O)NCC(=O)N[C@@H](CC(C)C)C(=O)N[C@@H](CCCCNC(=O)CC[C@H](NC(=O)CCCCCCCCCCCCCCC(=O)O)C(=O)O)C(=O)N[C@@H](CCC(N)=O)C(=O)N[C@H](C(=O)N[C@@H](CC(C)C)C(=O)N[C@@H](CC(C)C)C(=O)N[C@@H](CCCCN)C(=O)N[C@@H](CCC(N)=O)C(=O)N[C@@H](CCC(=O)O)C(=O)N[C@@H](CCCNC(=N)N)C(=O)N[C@@H](CCC(N)=O)C(=O)N[C@@H](CCCCN)C(=O)N[C@@H](CCCCN)C(=O)NC(C)(C)C(=O)N[C@@H](CCCNC(=N)N)C(=O)N[C@@H](CCC(=O)O)C(=O)N[C@@H](CCC(N)=O)C(=O)N[C@@H](C)C(=O)N[C@@H](CCC(=O)O)C(=O)N[C@H](C(=O)N[C@@H](CC(N)=O)C(=O)N[C@@H](CCCCN)C(=O)N[C@@H](CCCNC(=N)N)C(=O)N[C@H](C(=O)N[C@@H](CC(C)C)C(=O)N[C@@H](CCC(=O)O)C(=O)N[C@@H](CCCNC(=N)N)C(=O)N[C@H](C(N)=O)C(C)C)[C@@H](C)CC)[C@@H](C)O)[C@@H](C)CC)[C@@H](C)CC)C(C)C)C(C)C

target: T1, CRF1R receptor (anti-target); assay: cell-based or functional assay

Row | EC50 [nM] 0% HSA (cAMP, HTRF) [nM] | Emax (%) (100% = Sauvagine at 100 nM) | Binder
1 | > 100 | 17.1 | B1
2 | 82.8 | 57.3 | B2
3 | > 100 | 16.9 | B3
4 | > 100 | 12 | B4
5 | > 100 | 52.6 | IVLSLD[dV]PTKLK([AEEA-AEEA-γGlu-C20 diacid])KKLLKQERKR[Aib]EREKAEKAARILERV-NH2 [peptide of SEQ ID NO: 224]
6 | > 100 | 24.4 | B5
7 | > 100 | 8.77 | B6
